Test results from patent publication US20240410900A1 (Hoffmann-La Roche, published 2024).
Changes are numbered by the printed parent chain.

B1: anti-PG variant Fc-region antibody M1.3.17 (antibody, V domains shown)
VH: EVKLLESGGGLVQPGGSLKLSCAASGIDFRRYWMNWVRQAPGKGLEWIGEIDPDSSTINYTPSLKDKFIISRDNAKNTMYLQMRKVRSEDTALYYCARPYDYGAWFAYWGQGTLVTVSA
VL: QAVVTQESALTTSPGETVTLTCRSTTGAVTTSNYANWVQEKPDHLFTGLIGGTNKRAPGVPARFSGSLIGDKAALTITGAQTEDEAIYFCALWYSDHWVFGGGTKLTVL
notes: Monomeric, bivalent full-length antibody with murine variable domains; Biotinylated when used as capture antibody; also called anti-PG antibody clone 1.3.17; M1.3.17-Bi
B2: anti-AAA variant Fc-region antibody M1.6.22 (antibody, V domains shown)
VH: EVQLVESGGDLVKPGGSLKLSCAASGFTFSSYGMSWVRQTPDKRLEWVATISSGGSYIYYPDSVKGRFTISRDNAKNTLYLQMSSLKSEDTAMYYCARLGMITTGYAMDYWGQGTSVTVSS
VL: DVLMTQTPLSLPVSLGDQASISCRSSQTIVHSTGHTYLEWFLQKPGQSPKLLIYKVSNRFSGVPDRFSGSGSGTDFTLKISRVEAEDLGVYYCFQGSHVPYTFGGGTKLEIK
notes: Murine variable domains; also called M1.6.22-Bi
B3: anti-PG variant Fc-region antibody M1.7.24 (monomeric, bivalent) (antibody, V domains shown)
VH: B1 VH with I27F, R30S, D52T, M79L, R84I, A97V, Y108S
VL: B1 VL with T25S, D96N
notes: Full-length Y-shaped antibody with murine variable domains; Biotinylated when used as capture antibody; also called anti-PG antibody clone 1.7.24; M1.7.24-Bi

Target: T1, anti-VEGF/ANG2 antibody (IgG1 subclass with mutations P329G/L234A/L235A)
T1 construct: Positions are EU numbers; also called sample 2; antibody 2
Assay: ELISA assay C, tracer FcγRI-Dig, target 3 ng/mL

Going from B1 to B2, the “signal [OD405 nm]” value falls from 1.22 OD405 nm to 0.068 OD405 nm.

B3 was tested, and the “signal [OD405 nm]” value was 0.057 OD405 nm.

Target: T2, anti-VEGF/ANG2 antibody (IgG1 subclass with mutations P329G/L234A/L235A/I253A/H310A/H435A)
T2 construct: Format of the bispecific antibody not described; Positions are EU numbers, not positions on the UniProt entry; also called sample 1; antibody 1
Assay: ELISA assay C, tracer FcγRI-Dig, target 3 ng/mL

Compared with B1, B2 is lower in “signal [OD405 nm]” value: 1.16 OD405 nm for the first, 0.066 OD405 nm for the second.

For B3, the “signal [OD405 nm]” value was 0.094 OD405 nm.

Target: T3, anti-P-Selectin antibody (IgG4 subclass with mutations S228P/L235E)
T3 construct: Positions are EU numbers; also called sample 4; antibody 4
Assay: ELISA assay C, tracer FcγRI-Dig, target 3 ng/mL

First: B1
Second: B2
The “signal [OD405 nm]” value of the first is higher: 1.19 OD405 nm for the first, 0.05 OD405 nm for the second.

With B3 the “signal [OD405 nm]” value was 0.053 OD405 nm.

Target: T4, anti-IGF-1R antibody (IgG1 subclass with mutations I253A/H310A/H435A)
T4 construct: Positions are EU numbers; also called sample 3; antibody 3
Assay: ELISA assay C, tracer FcγRI-Dig, target 3 ng/mL

First: B1
Second: B2
The “signal [OD405 nm]” value of the first is higher: 1.21 OD405 nm for the first, 0.083 OD405 nm for the second.

For B3, the “signal [OD405 nm]” value was 0.077 OD405 nm.

Target: T1, anti-VEGF/ANG2 antibody (IgG1 subclass …)
Assay: ELISA assay C, tracer FcγRI-Dig, target 100 ng/mL

First: B1
Second: B2
The “signal [OD405 nm]” value of the first is higher: 1.22 OD405 nm for the first, 0.076 OD405 nm for the second.

In the case of B3, the “signal [OD405 nm]” value is reported as 0.082 OD405 nm.

Target: T2, anti-VEGF/ANG2 antibody (IgG1 subclass …)
Assay: ELISA assay C, tracer FcγRI-Dig, target 100 ng/mL

First: B1
Second: B2
The “signal [OD405 nm]” value of the first is higher: 1.19 OD405 nm for the first, 0.079 OD405 nm for the second.

With B3 the “signal [OD405 nm]” value was 0.05 OD405 nm.

Target: T5, anti-VEGF/ANG2 antibody (wild-type IgG1 subclass) (UniProt P01857-1 1-330 = IgG part)
T5 construct: also called sample 5; antibody 5
Assay: ELISA assay C, tracer FcγRI-Dig, target 100 ng/mL

Compared with B1, B2 is lower in “signal [OD405 nm]” value: 1.18 OD405 nm for the first, 0.076 OD405 nm for the second.

For B3, the “signal [OD405 nm]” value was 0.073 OD405 nm.

Target: T3, anti-P-Selectin antibody (IgG4 subclass …)
Assay: ELISA assay C, tracer FcγRI-Dig, target 100 ng/mL

First: B1
Second: B2
The “signal [OD405 nm]” value of the first is higher: 1.17 OD405 nm for the first, 0.069 OD405 nm for the second.

In the case of B3, the “signal [OD405 nm]” value is reported as 0.08 OD405 nm.

Target: T4, anti-IGF-1R antibody (IgG1 subclass …)
Assay: ELISA assay C, tracer FcγRI-Dig, target 100 ng/mL

First: B1
Second: B2
The “signal [OD405 nm]” value of the first is lower: 1.2 OD405 nm for the first, 2.1 OD405 nm for the second.

In the case of B3, the “signal [OD405 nm]” value is reported as 0.11 OD405 nm.

Target: T1, anti-VEGF/ANG2 antibody (IgG1 subclass …)
Assay: ELISA assay C, tracer FcγRI-Dig, target 2 ng/mL

Going from B1 to B2, the “signal [OD405 nm]” value falls from 1.22 OD405 nm to 0.072 OD405 nm.

For B3, the “signal [OD405 nm]” value was 0.093 OD405 nm.

Target: T2, anti-VEGF/ANG2 antibody (IgG1 subclass …)
Assay: ELISA assay C, tracer FcγRI-Dig, target 2 ng/mL

Compared with B1, B2 is lower in “signal [OD405 nm]” value: 1.17 OD405 nm for the first, 0.077 OD405 nm for the second.

In the case of B3, the “signal [OD405 nm]” value is reported as 0.085 OD405 nm.

Target: T5, anti-VEGF/ANG2 antibody (wild-type IgG1 …)
Assay: ELISA assay C, tracer FcγRI-Dig, target 2 ng/mL

Going from B1 to B2, the “signal [OD405 nm]” value falls from 1.19 OD405 nm to 0.077 OD405 nm.

B3 was tested, and the “signal [OD405 nm]” value was 0.058 OD405 nm.

Target: T3, anti-P-Selectin antibody (IgG4 subclass …)
Assay: ELISA assay C, tracer FcγRI-Dig, target 2 ng/mL

First: B1
Second: B2
The “signal [OD405 nm]” value of the first is higher: 1.19 OD405 nm for the first, 0.067 OD405 nm for the second.

In the case of B3, the “signal [OD405 nm]” value is reported as 0.056 OD405 nm.

Target: T4, anti-IGF-1R antibody (IgG1 subclass …)
Assay: ELISA assay C, tracer FcγRI-Dig, target 2 ng/mL

Compared with B1, B2 is lower in “signal [OD405 nm]” value: 1.26 OD405 nm for the first, 0.082 OD405 nm for the second.

B3 was tested, and the “signal [OD405 nm]” value was 0.074 OD405 nm.

Target: T1, anti-VEGF/ANG2 antibody (IgG1 subclass …)
Assay: ELISA assay C, tracer FcγRI-Dig, target 25 ng/mL

Going from B1 to B2, the “signal [OD405 nm]” value falls from 1.21 OD405 nm to 0.063 OD405 nm.

For B3, the “signal [OD405 nm]” value was 0.083 OD405 nm.

Target: T2, anti-VEGF/ANG2 antibody (IgG1 subclass …)
Assay: ELISA assay C, tracer FcγRI-Dig, target 25 ng/mL

First: B1
Second: B2
The “signal [OD405 nm]” value of the first is higher: 1.07 OD405 nm for the first, 0.081 OD405 nm for the second.

B3 was tested, and the “signal [OD405 nm]” value was 0.082 OD405 nm.

Target: T5, anti-VEGF/ANG2 antibody (wild-type IgG1 …)
Assay: ELISA assay C, tracer FcγRI-Dig, target 25 ng/mL

Compared with B1, B2 is lower in “signal [OD405 nm]” value: 1.16 OD405 nm for the first, 0.066 OD405 nm for the second.

B3 was tested, and the “signal [OD405 nm]” value was 0.063 OD405 nm.

Target: T3, anti-P-Selectin antibody (IgG4 subclass …)
Assay: ELISA assay C, tracer FcγRI-Dig, target 25 ng/mL

Compared with B1, B2 is lower in “signal [OD405 nm]” value: 1.17 OD405 nm for the first, 0.06 OD405 nm for the second.

B3 was tested, and the “signal [OD405 nm]” value was 0.07 OD405 nm.

Target: T4, anti-IGF-1R antibody (IgG1 subclass …)
Assay: ELISA assay C, tracer FcγRI-Dig, target 25 ng/mL

Going from B1 to B2, the “signal [OD405 nm]” value falls from 1.2 OD405 nm to 0.401 OD405 nm.

With B3 the “signal [OD405 nm]” value was 0.073 OD405 nm.

Target: T1, anti-VEGF/ANG2 antibody (IgG1 subclass …)
Assay: ELISA assay B, tracer M1.7.10-Dig, target 3 ng/mL
Protocol: (§1) Biotinylated anti-PG Fc-region antibody or biotinylated anti-AAA Fc-region antibody, respectively, was bound to the wells of a streptavidin-coated multi-well plate (SA-MTP) to produce a capture plate. Excess of unbound antibody was removed by washing. Sample/standard antibodies spiked in human and cynomolgus monkey serum (10% final concentration) was added to wells of the SA-MTP multi-well plate coated with the capture plate and incubated for 1 hour at room temperature. After washing, the wells were incubated with digoxygenylated anti-human kappa antibody M1.7.10 (see e.g. WO 2011/048043, incorporated herein by reference). After washing the bound digoxygenylated anti-human kappa antibody complex was incubated with a horseradish peroxidase (HRP) labelled anti-digoxygenin antibody. After another washing step, an ABTS solution was added to the wells and incubated. The product of the color reaction was measured by Elisa reader at 405 nm wavelength (reference wavelength: 490 nm). Absorbance values of each sample or standard were determined in triplicates.

Compared with B1, B2 is lower in “signal [OD405 nm]” value: 0.165 OD405 nm for the first, 0.044 OD405 nm for the second.

With B3 the “signal [OD405 nm]” value was 2.51 OD405 nm.

Target: T2, anti-VEGF/ANG2 antibody (IgG1 subclass …)
Assay: ELISA assay B, tracer M1.7.10-Dig, target 3 ng/mL
Protocol: as §1

Going from B1 to B2, the “signal [OD405 nm]” value rises from 0.036 OD405 nm to 0.039 OD405 nm.

With B3 the “signal [OD405 nm]” value was 0.04 OD405 nm.

Target: T5, anti-VEGF/ANG2 antibody (wild-type IgG1 …)
Assay: ELISA assay B, tracer M1.7.10-Dig, target 3 ng/mL
Protocol: as §1

First: B1
Second: B2
The “signal [OD405 nm]” value of the first is higher: 0.044 OD405 nm for the first, 0.037 OD405 nm for the second.

In the case of B3, the “signal [OD405 nm]” value is reported as 0.033 OD405 nm.

Target: T3, anti-P-Selectin antibody (IgG4 subclass …)
Assay: ELISA assay B, tracer M1.7.10-Dig, target 3 ng/mL
Protocol: as §1

Compared with B1, B2 is lower in “signal [OD405 nm]” value: 0.05 OD405 nm for the first, 0.039 OD405 nm for the second.

With B3 the “signal [OD405 nm]” value was 0.031 OD405 nm.

Target: T4, anti-IGF-1R antibody (IgG1 subclass …)
Assay: ELISA assay B, tracer M1.7.10-Dig, target 3 ng/mL
Protocol: as §1

First: B1
Second: B2
The “signal [OD405 nm]” value of the first is lower: 0.047 OD405 nm for the first, 2.26 OD405 nm for the second.

With B3 the “signal [OD405 nm]” value was 0.046 OD405 nm.
